This experiment concerns the target ankyrin-B (UniProt Q01484).
Chain of UniProt Q01484 (Q01484 whole entry): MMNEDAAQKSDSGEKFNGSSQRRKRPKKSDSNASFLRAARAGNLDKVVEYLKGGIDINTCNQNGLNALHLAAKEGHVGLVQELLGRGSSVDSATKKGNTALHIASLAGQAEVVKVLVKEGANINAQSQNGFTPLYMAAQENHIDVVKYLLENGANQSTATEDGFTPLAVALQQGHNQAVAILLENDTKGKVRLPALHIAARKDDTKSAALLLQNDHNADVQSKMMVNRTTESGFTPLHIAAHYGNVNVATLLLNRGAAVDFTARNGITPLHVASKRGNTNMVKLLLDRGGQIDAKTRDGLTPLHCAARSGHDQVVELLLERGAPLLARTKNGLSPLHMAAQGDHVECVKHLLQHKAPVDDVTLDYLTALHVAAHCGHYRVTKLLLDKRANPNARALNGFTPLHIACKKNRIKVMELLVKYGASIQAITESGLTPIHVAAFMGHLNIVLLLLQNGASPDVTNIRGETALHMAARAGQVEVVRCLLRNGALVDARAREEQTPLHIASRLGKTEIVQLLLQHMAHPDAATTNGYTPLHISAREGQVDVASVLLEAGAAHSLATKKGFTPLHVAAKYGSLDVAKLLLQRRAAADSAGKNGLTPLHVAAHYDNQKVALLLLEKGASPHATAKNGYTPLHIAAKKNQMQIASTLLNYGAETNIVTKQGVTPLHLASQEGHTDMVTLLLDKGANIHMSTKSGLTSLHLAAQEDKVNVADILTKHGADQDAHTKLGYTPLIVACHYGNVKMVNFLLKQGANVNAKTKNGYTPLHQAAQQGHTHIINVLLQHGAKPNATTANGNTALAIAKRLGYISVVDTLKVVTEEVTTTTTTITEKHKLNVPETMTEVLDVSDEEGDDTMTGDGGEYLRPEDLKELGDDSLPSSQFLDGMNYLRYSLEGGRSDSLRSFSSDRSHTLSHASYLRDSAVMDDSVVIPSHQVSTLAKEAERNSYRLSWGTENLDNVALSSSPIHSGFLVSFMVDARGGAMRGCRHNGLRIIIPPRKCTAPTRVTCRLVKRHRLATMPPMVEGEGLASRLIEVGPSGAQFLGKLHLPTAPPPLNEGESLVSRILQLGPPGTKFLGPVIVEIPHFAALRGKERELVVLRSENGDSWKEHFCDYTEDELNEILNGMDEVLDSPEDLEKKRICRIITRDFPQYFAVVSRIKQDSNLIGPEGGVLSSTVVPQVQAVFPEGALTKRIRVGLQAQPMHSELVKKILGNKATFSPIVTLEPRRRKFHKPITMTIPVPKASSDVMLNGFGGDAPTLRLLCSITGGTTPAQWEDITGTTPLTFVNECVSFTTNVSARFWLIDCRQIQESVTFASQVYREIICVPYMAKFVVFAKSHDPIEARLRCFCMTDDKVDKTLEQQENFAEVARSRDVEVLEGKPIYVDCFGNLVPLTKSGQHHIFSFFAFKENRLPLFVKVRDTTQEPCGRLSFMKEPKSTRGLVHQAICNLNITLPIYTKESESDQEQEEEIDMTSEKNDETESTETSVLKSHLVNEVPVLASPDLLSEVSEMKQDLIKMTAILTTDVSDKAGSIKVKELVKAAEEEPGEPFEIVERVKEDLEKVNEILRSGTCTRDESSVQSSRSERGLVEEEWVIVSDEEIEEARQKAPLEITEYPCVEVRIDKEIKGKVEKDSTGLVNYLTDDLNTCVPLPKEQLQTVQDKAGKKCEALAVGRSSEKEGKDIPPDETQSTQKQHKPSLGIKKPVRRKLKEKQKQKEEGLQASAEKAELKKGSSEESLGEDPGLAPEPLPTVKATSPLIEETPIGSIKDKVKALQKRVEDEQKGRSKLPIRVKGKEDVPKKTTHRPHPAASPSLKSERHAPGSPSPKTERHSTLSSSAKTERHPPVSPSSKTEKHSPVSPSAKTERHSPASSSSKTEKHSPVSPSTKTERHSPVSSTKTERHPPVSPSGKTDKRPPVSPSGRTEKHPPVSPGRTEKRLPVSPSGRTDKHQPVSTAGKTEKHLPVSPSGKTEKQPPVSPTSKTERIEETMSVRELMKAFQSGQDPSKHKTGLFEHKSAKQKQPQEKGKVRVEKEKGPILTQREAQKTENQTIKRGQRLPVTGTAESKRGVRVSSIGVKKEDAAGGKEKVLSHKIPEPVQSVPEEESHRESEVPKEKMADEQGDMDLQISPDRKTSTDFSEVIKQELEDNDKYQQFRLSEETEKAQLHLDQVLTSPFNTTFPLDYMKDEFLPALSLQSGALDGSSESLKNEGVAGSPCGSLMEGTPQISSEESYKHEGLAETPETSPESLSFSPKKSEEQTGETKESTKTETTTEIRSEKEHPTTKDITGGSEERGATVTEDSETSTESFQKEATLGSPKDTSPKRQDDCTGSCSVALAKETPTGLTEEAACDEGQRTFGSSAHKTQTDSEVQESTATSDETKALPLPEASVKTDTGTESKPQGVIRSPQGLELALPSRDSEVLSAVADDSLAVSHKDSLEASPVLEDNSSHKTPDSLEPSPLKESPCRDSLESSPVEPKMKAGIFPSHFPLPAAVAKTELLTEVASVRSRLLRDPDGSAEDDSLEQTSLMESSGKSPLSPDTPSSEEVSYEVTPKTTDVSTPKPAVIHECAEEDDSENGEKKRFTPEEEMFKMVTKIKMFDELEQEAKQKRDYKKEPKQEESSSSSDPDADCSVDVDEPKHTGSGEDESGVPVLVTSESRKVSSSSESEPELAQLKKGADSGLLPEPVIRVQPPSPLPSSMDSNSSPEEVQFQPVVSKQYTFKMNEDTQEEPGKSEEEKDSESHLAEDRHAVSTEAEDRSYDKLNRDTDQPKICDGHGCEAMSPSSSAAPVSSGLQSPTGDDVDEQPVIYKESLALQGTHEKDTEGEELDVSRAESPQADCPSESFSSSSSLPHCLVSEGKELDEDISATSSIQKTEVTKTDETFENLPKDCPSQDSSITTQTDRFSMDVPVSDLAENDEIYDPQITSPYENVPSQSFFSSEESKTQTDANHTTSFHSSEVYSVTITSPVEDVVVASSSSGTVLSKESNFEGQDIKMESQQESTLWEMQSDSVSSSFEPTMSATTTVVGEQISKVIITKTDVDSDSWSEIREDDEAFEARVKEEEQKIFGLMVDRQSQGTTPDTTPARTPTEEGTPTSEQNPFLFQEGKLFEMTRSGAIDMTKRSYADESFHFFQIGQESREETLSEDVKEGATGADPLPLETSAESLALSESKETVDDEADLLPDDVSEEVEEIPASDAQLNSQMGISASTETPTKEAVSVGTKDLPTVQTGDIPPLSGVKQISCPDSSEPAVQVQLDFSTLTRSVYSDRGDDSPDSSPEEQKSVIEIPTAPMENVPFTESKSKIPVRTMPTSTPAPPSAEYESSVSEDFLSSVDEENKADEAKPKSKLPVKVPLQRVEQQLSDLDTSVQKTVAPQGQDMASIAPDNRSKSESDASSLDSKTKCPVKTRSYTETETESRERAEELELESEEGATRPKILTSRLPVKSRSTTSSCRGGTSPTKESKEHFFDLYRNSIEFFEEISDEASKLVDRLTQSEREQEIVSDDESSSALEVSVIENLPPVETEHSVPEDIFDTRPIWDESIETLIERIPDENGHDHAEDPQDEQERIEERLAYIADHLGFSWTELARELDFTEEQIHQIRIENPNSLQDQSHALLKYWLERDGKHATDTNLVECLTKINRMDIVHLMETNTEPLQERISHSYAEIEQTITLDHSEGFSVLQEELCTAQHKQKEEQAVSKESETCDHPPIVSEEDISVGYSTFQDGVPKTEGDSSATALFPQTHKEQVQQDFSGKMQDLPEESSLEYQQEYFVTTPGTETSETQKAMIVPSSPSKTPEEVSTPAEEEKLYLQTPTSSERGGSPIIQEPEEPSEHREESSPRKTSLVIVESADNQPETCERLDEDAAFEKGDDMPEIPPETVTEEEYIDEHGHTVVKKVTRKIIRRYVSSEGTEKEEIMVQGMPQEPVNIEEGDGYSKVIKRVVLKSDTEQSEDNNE

Broadly, the Kd is a measure of binding affinity in units of concentration. Higher therefore signals lower affinity. As for “IP3 receptor (from UniProt P29994 1-2750)”, the Kd amounted to 200 nM.
